Each block holds one binder with its values, some of them ahead of it. Bridge positions count the residues as written; N and C are the ends. Square brackets hold non-standard residues; d marks the D form. Ends that are not written are not given here. * marks the point of attachment. Biotin = O=C1N[C@H]2[C@H](CS[C@H]2CCCCC(=O)*)N1; S5 = C=CCCC[C@](C)(N)C(=O)O
Legend:
MCL-1 SAHBD = target: T1, MCL-1 SAHBD
T1 chain: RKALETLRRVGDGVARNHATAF

[1] = target: MCL-1 SAHBs that do not bind VLCAD
[2] = target: recombinant VLCAD (mature human VLCAD lacking its cleavable leader sequence, aa 40-655, 10x His-tagged) (human) (UniProt P49748); assay: ITC, 200 µM Btn-peptide injected into 15 µM recombinant VLCAD, 25 °C, single binding site model
[3] = target: T2, native VLCAD (Very Long Chain Acyl CoA Dehydrogenase) from mouse embryonic fibroblast lysates (mouse, UniProt P50544 42-656); assay: DSS chemical crosslinking of intact mouse liver mitochondria, Western (FIG. 32)
T2 construct: also called endogenous VLCAD of mouse liver mitochondria
T2 sequence (looked up): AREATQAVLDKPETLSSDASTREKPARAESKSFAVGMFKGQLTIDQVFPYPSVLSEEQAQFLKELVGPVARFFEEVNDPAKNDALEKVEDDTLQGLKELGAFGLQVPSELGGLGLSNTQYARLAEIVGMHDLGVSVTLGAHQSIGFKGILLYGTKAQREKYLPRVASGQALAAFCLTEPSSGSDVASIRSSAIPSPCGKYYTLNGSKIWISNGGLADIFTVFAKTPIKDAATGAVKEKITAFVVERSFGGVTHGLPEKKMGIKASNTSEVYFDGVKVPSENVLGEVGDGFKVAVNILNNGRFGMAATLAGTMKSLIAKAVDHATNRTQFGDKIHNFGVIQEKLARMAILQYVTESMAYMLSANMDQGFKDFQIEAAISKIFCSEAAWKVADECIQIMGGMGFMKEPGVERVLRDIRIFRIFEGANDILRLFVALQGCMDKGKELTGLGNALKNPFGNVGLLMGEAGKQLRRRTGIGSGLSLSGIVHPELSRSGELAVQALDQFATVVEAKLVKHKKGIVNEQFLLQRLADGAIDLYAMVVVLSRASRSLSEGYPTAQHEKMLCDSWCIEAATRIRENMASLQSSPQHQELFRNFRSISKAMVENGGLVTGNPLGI
Text: To investigate the native interaction between VLCAD and MCL-1, intact mitochondria were isolated from mouse livers and exposed to the chemical crosslinker DSS. Vehicle or DSS-treated mitochondria were then lysed and the resultant lysate run on a reducing/denaturing gel.

MCAD = target: T3, MCAD (mouse, UniProt P45952 26-421); assay: streptavidin pull-down with biotinylated SAHB from cellular lysate; western blot for MCAD
T3 sequence (looked up): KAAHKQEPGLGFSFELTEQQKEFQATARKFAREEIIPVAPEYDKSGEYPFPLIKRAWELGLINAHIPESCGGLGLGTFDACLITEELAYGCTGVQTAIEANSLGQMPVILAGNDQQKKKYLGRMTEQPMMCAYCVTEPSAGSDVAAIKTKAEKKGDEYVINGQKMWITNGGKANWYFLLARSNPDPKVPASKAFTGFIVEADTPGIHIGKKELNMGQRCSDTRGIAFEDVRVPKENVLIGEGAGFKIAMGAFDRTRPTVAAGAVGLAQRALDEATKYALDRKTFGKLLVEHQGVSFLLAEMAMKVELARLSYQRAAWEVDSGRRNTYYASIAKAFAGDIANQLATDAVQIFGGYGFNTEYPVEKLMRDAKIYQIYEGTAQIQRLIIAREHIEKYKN
Text: (§1) To validate the MS result, the pulldowns were repeated and eluates run on a gel for anti-VLCAD Western blot analysis. VLCAD was detected in the MCL-1 SAHBD pulldown eluate, confirming the MS results. […] All peptides faithfully recapitulated native BH3-binding propensities for endogenous MCL-1 protein (FIG. 8). The eluates were then probed for the other members of the acyl-CoA dehydrogenase family that manifest shorter fatty acid substrate specificities. MCL-1 SAHBD was able to pull down VLCAD, but not MCAD or SCAD (FIG. 9). Because the traditional MCL-1 staple location differs from that of the BIM, BID, and BAD SAHBs, it was important to confirm that the observed VLCAD binding specificity was due to BH3 sequence selectivity, not staple position. A BIM SAHB with the traditional MCL-1 staple (BIM SAHBF), and a MCL-1 stapled peptide with the traditional BIM staple (MCL-1 SAHBA), were generated. […]
(§2) Wild-type MEFs were trypsinized, washed once with cold PBS, and lysed on ice with NP-40 lysis buffer (50 mM Tris, pH 7.4, 150 mM NaCl, 0.5% (v/v) NP-40, complete protease inhibitor pellet (Roche)) using 1 ml of lysis buffer for every 10 million cells lysed. Cellular debris was pelleted at 14,000 g for 10 min at 4° C., and the supernatant was quantified using the BCA Protein Assay Kit (Thermo Fisher Scientific). […]

SCAD = target: T4, SCAD (mouse, UniProt Q07417 25-412); assay: streptavidin pull-down with biotinylated SAHB from cellular lysate; western blot for SCAD
T4 sequence (looked up): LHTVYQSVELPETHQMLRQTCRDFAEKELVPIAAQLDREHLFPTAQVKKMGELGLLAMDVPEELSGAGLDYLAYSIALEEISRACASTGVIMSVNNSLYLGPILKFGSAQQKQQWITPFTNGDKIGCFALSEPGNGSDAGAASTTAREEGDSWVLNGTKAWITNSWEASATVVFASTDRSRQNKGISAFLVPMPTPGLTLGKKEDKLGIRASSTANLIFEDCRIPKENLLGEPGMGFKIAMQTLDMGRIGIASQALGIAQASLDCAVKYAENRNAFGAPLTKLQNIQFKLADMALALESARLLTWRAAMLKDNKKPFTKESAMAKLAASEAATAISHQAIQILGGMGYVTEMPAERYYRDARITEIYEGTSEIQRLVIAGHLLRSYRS
Text: as §1, §2

[4] = target: recombinant VLCAD (mature human VLCAD lacking its cleavable leader sequence, aa 40-655, 10x His-tagged) (human) (UniProt P49748); assay: biolayer interferometry; Biotin-PEG SAHB on streptavidin sensors, VLCAD in solution at the plotted concentrations
MCL-1ΔNΔC = MCL-1ΔNΔC (UniProt Q07820); assay: biolayer interferometry; Biotin-PEG SAHB on streptavidin sensors, MCL-1ΔNΔC in solution at the plotted concentrations
Chain of MCL-1ΔNΔC (Q07820 172-320, stated change not applied): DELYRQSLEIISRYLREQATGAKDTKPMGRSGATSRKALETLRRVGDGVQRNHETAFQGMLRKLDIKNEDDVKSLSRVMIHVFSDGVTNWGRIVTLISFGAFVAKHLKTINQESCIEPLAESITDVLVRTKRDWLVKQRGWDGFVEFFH

[5] = target: T2, native VLCAD (Very Long Chain Acyl CoA …); assay: streptavidin pull-down with biotinylated SAHB from MEF lysate; western blot for VLCAD, densitometry ratio mutant/WT
Method: Wild-type MEFs were trypsinized, washed once with cold PBS, and lysed on ice with NP-40 lysis buffer (50 mM Tris, pH 7.4, 150 mM NaCl, 0.5% (v/v) NP-40, complete protease inhibitor pellet (Roche)) using 1 ml of lysis buffer for every 10 million cells lysed. Cellular debris was pelleted at 14,000 g for 10 min at 4° C., and the supernatant was quantified using the BCA Protein Assay Kit (Thermo Fisher Scientific). 2 mg of lysate per pulldown were then exposed to 50 μL of pre-equilibrated High Capacity Streptavidin Agarose beads (Thermo Fisher Scientific). […] The beads were then pelleted and washed with NP-40 lysis buffer three times before eluting the protein sample from the beads by heating at 70° C. for 10 min in SDS loading buffer. Samples were then subjected to electrophoresis and either Western analysis or Coomassie stain (SimplyBlue Safe Stain, Thermo Fisher Scientific). The antibodies used for Western analysis were the following: MCL-1 (Rockland 600-401-394; 1:1000 in 3% BSA), VLCAD (Thermo Fisher Scientific PA5-29959; 1:1000 in 1% milk+0.1% Tween-20), MCAD (Thermo Fisher Scientific PA5-27201; 1:1000 in 3% BSA), and SCAD (Abcam ab154823; 1:1000 in 3% BSA). Coomassie stained gels were then processed for proteomics analysis (see below). Biotinylated SAHB pulldowns of recombinant protein were performed as above incubating 5 nmol of SAHB with 10 pmol of rVLCAD in 500 μL total volume. […]

B1: recombinant VLCAD (mature human VLCAD lacking its cleavable leader sequence, aa 40-655, 10x His-tagged) (protein)
chain: YAGGAAQLALDKSDSHPSDALTRKKPAKAESKSFAVGMFKGQLTTDQVFPYPSVLNEEQTQFLKELVEPVSRFFEEVNDPAKNDALEMVEETTWQGLKELGAFGLQVPSELGGVGLCNTQYARLVEIVGMHDLGVGITLGAHQSIGFKGILLFGTKAQKEKYLPKLASGETVAAFCLTEPSSGSDAASIRTSAVPSPCGKYYTLNGSKLWISNGGLADIFTVFAKTPVTDPATGAVKEKITAFVVERGFGGITHGPPEKKMGIKASNTAEVFFDGVRVPSENVLGEVGSGFKVAMHILNNGRFGMAAALAGTMRGIIAKAVDHATNRTQFGEKIHNFGLIQEKLARMVMLQYVTESMAYMVSANMDQGATDFQIEAAISKIFGSEAAWKVTDECIQIMGGMGFMKEPGVERVLRDLRIFRIFEGTNDILRLFVALQGCMDKGKELSGLGSALKNPFGNAGLLLGEAGKQLRRRAGLGSGLSLSGLVHPELSRSGELAVRALEQFATVVEAKLIKHKKGIVNEQFLLQRLADGAIDLYAMVVVLSRASRSLSEGHPTAQHEKMLCDTWCIEAAARIREGMAALQSDPWQQELYRNFKSISKALVERGGVVTSNPLGF
VLCAD enzymatic activity (reduction of ferrocenium hexafluorophosphate with palmitoyl-CoA as substrate) (MCL-1 SAHBD): Pre-incubation of VLCAD with MCL-1 SAHBD caused a decrease in enzymatic activity | VLCAD enzymatic activity (reduction of ferrocenium hexafluorophosphate with palmitoyl-CoA as substrate) [1]: an effect not observed when MCL-1 SAHBs that do not bind VLCAD were added

B2: MCL-1 SAHBD V220A (peptide)
peptide: Biotin-RKALETLRRVGDGAARNH[S5]TAF
modifications: staple (positions not given here); not fully specified (residue 15, bridges); also: second staple residue not placed
Kd [2]: 1700 nM

B4: MCL-1 SAHBD (peptide)
peptide: RKALETLRRVGDGV[S5]RNH[S5]TAF
modifications: staple 15-19; also: derivatised forms: N-terminal biotin, Btn-PEG, fluorinated analog
notes: One entry for all derivatised forms (biotin, Btn-PEG, fluorinated, underivatised); the form used is named under assay in each row; also called Btn-MCL-1 SAHBD; Biotin-PEG-MCL-1 SAHBD
binding result (MCAD): no binding | binding result (SCAD): no binding | EC50 (read off the curve) [4]: 3000 nM | EC50 (read off the curve) (MCL-1ΔNΔC): 200 nM

Now from value to binder:

binding result [3]: binds
B3: endogenous MCL-1 protein from mouse embryonic fibroblasts (other, UniProt P97287 1-331, looked up)
chain: MFGLRRNAVIGLNLYCGGASLGAGGGSPAGARLVAEEAKARREGGGEAALLPGARVVARPPPVGAEDPDVTASAERRLHKSPGLLAVPPEEMAASAAAAIVSPEEELDGCEPEAIGKRPAVLPLLERVSEAAKSSGADGSLPSTPPPPEEEEDDLYRQSLEIISRYLREQATGSKDSKPLGEAGAAGRRALETLRRVGDGVQRNHETAFQGMLRKLDIKNEGDVKSFSRVMVHVFKDGVTNWGRIVTLISFGAFVAKHLKSVNQESFIEPLAETITDVLVRTKRDWLVKQRGWDGFVEFFHVQDLEGGIRNVLLAFAGVAGVGAGLAYLIR
notes: also called native MCL-1; endogenous/native MCL-1

binding result [5]: no binding
B5: MCL-1 SAHBD H224A (peptide)
peptide: RKALETLRRVGDGVARNAATAF
modifications: staple (positions not given here); not fully specified (residues 15, 19, bridges); also: biotinylated, site not given here
notes: MCL-1 numbering

From patent publication US20250306026A1 (Dana-Farber, published 2025)
